Biological target: the molecule itself
Experiment: native MS

Row | Protein | binding result
1 | MST1 SARAHmyc (domain or fragment) DYEFLKSWTVEDLQKRLLALDPMMEQEIEEIRQKYQSKRQPILDAIEAKKRRQQNF | binds
2 | S-RASSF5 SARAH (domain or fragment) GEVEWDAFSIPELQNFLTILEKEEQDKIQQVQKKYDKFRQKLEEALRESQGKPG | binds

Reference: publication PMC4221134 (Advances in biological regulation, 2013)
